{"source": "patent US6428579B1", "about": "“Implantable prosthetic devices coated with bioactive molecules” (Brown University Research Foundation, priority 1999, dated 2002)", "assay": "Surface plasmon resonance of peptide adsorption on gold", "assay_type": "physicochemical", "details": "best fit of SPR spectra, Fresnel theory", "from_the_text": "Surface plasmon resonance (SPR) was produced when a beam of p-polarized laser light impinges onto the surface of a thin metal film. The light was coupled to the metal film through a prism which was mounted on a rotating turntable. At a particular angle of incidence the E-field of the laser light interacts with the surface bound free electrons of the metal film in such a way that a charge density wave was generated at the interface of the metal and air. This excitation results in a sharp reduction in the magnitude of the reflected light (measured with a photodiode). The angle at which this occurs together with the depth and half-width of the minimum were determined by the thickness and complex refractive index of the metal film. The magnitude of the evanescent field which arises from the charge density wave decays exponentially in the direction normal to the surface. […] By fitting the Fresnel equations, firstly to the date for the uncoated metal film, and then to the metal plus thin film, the thicknesses and complex refractive indices of the metal and peptide overlayer were determined. […] Another practical advantage of this method is that peptide chemistry can be determined in aqueous environments rather than the ultrahigh vacuums needed for other surface-sensitive techniques (e.g. ESCA). […]", "data": [{"substance": "Arg-Gly-Asp-Cys (RGDC; printed: Arg-Gly-Asp-Cys) [fibronectin related peptide, cysteine terminated]", "values": [{"measurement": "Film thickness of peptide layer", "value": "23-25 Å"}]}]}
